Measured values reported in patent US20250340655A1, “EPHA2-TARGETING ANTIBODIES AND THEIR APPLICATIONS IN CANCER TREATMENT” (TAIPEI MEDICAL UNIVERSITY, priority 2022, published 2025).
Each block holds one molecule with its values, some of them ahead of it. Ends that are not written are not given here. BSA = bovine serum albumin carrier conjugated to the peptide

Legend:
BxPc-3 tumor = BxPc-3 tumor xenograft model (IgG hSD5, gemcitabine); format: in vivo, mouse; conditions: BxPc-3 xenograft, iv
Protocol: (§1) The freshly prepared BxPc-3 and Mia PaCa-2 cancer cells were harvested during the log growth phase and resuspended in PBS for tumor implantation. Each NOD/SCID mouse was subcutaneously inoculated with cancer cells (5×10^6 to BxPc-3 and 1×10^7 to Mia PaCa-2) for tumor formation. The tumor size was measured twice weekly, and the volume was calculated as follows: V=0.5lw^2, where l=the length and w=the width. When the tumor size was approximately 100 mm3, animals were divided into groups that received (a) vehicle alone through intravenous injection (i.v.) once weekly (qwk), (b) control human IgG1 at 20 mg/kg through i.v. qwk, (c) and (d) hSD5 IgG1 at 2 or 20 mg/kg through i.v. qwk, (e) and (f) gemcitabine at 20 or 100 mg/kg through i.v. twice weekly (biw), or (g) hSD5 IgG1 at 2 mg/kg through i.v. qwk combined with gemcitabine at 20 mg/kg through i.v. biw. At the end of the experiment, the antitumor effects were quantified by dividing the tumor volumes in the treatment groups by those in the control groups and multiplying them by 100 to represent tumor growth inhibition (TGI; %). The mice were also examined frequently for overt signs of adverse drug-related side effects.
(§2) The pancreatic tissue microarray slide (US Biomax, PA483e) was used to detect and analyze the EphA2 expression of clinical samples. In the xenograft animal model, the excised BxPc-3 and Mia PaCa-2 tumors were fixed in formalin, embedded in paraffin, and sliced for immunohistochemical staining (IHC). Commercial antibodies (Cell signaling, Dako; Agilent Technologies; and Abcam) were used for staining the EphA2 molecule, cell proliferation marker Ki-67, and apoptosis marker cleaved caspase 3. The effects of staining were observed using a Zeiss Axioskop-2 microscope (Carl Zeiss).
(§3) Administration of IgG hSD5 (20 mg/kg, iv, qwk, indicated as blue filled inverted triangles) and Gemcitabine (100 mg/kg, iv, biw, indicated as orange filled squares) were used to test the inhibition effect on BxPc-3 tumor growth, n=6, TGI denotes Tumor growth inhibition. (FIG. 7A) Administration of IgG hSD5 (2 mg/kg, iv, qwk, indicated by solid black triangles), Gemcitabine (20 mg/kg, iv, biw, indicated by black open squares), and the experimental group that combined IgG and Gemcitabine treatment simultaneously (indicated by solid red diamonds) were used to teat the growth inhibitory effect of BxPc-3 on the tumor. (FIG. 7B) During treatments, the weight changes of each mouse group were tracked. (FIG. 7C) The expression levels of EphA2, cell proliferation marker Ki67, and apoptosis-related marker cleaved caspase3 in the excised tumor groups were analyzed by IHC staining. (FIG. 7D)

Mia PaCa-2 tumor = Mia PaCa-2 tumor xenograft model (IgG hSD5, gemcitabine); format: in vivo, mouse; conditions: Mia PaCa-2 xenograft
Protocol: as §1, §2
as §3, with “Mia PaCa-2 xenograft mice was also used to determine the inhibitory effect of IgG hSD5 on in vivo tumor growth. Administration of” for “Administration of”, “inhibition. (FIG. 8A) Administration of” for “inhibition. (FIG. 7A) Administration of”, “tumor. (FIG. 8B) During treatments,” for “tumor. (FIG. 7B) During treatments,”, “tracked. (FIG. 8C) The expression” for “tracked. (FIG. 7C) The expression”, “staining. (FIG. 8D)” for “staining. (FIG. 7D)”

BxPc-3 cells = assay: Antibody internalization (endocytosis) assay; format: cell-based, human; conditions: BxPc-3, 1 h, 37° C. vs 4° C. (FIG. 6B)
Protocol: BxPc-3 cells were seeded on cover glasses placed in the wells of a 6-well culture plate. The BxPc-3 seeded glass slides were incubated with ephrin A1-Fc (Sino Biological) or IgG hSD5 for 1 h at 37° C. or 4° C. After washing with PBS, the cells were fixed with 100% ice methanol for 10 min. Next, the cells were stained with an FITC-conjugated anti-human Fc antibody and were subsequently mounted with ProLong Diamond Antifade Mountant comprising 4′,6-diamidino-2-phenylindole for nuclear counterstaining (Invitrogen). The cells were imaged using a confocal microscope (Leica Microsystems).

[1] = biological target: T1, recombinant EphA2 protein (UniProt P29317 24-537, limits assumed); assay: biolayer interferometry
T1 construct: Coated on ELISA plates, run on Native-PAGE and used in biolayer interferometry
T1 sequence (P29317 24-537 limits assumed): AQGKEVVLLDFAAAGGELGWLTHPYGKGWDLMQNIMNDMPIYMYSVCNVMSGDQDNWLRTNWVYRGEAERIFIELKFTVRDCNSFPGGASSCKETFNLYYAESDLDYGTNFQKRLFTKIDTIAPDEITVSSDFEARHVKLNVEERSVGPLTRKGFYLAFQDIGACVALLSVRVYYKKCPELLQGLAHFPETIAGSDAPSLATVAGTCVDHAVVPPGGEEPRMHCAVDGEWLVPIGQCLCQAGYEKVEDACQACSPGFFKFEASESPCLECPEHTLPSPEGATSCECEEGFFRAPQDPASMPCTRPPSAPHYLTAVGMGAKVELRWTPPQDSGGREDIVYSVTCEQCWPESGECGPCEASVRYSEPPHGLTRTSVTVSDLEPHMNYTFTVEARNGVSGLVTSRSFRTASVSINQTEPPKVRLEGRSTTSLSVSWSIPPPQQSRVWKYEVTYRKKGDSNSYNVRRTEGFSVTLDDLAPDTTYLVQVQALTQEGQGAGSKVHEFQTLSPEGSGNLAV

[2] = biological target: T2, EphA2pep_P1 (BSA-CGGGWDLMQNIMNDMPIYMYSV) (conjugated with BSA (printed BSA-C...)); assay: peptide ELISA on BSA-conjugated peptides
T2 peptide: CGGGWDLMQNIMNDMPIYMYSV
Protocol: (§4) These peptides were synthesized and conjugated with BSA (Kelowna International Scientific). The BSA-conjugated peptides were individually coated on a 96-well microplate at 4° C. overnight. […] Next, an HRP-conjugated anti-HA tag antibody (Cell Signaling Technology) was used to detect bound scFv. Finally, the TMB substrate was added for development, and the reaction was stopped by adding 1 N HCl. Absorbance was measured by determining the OD at 450 nm. […] Blocking with 3% BSA was performed at RT for 1 h. […] After the membrane was washed, the HRP-conjugated anti-HA tag antibody was added, and the reaction was allowed to proceed for 1 h at RT. Lastly, DAB was used to initiate the coloration reaction.
(§5) The two short peptides located on the designed activation site of EphA2 are EphA2pep_P1 and EphA2pep_P2, respectively. The long peptide formed by linking the two short peptides is EphA2pep_PIP2. NCIpep and NC2pep are two irrelevant peptides as the negative control. EphA2 ECD is a recombinant EphA2 extracellular domain protein.

[3] = biological target: T3, EphA2pep_PIP2 (BSA-CGGGWDLMQNIMNDMPIYMYSVGGGGGGSVSSDFEARHV) (conjugated with BSA (printed BSA-C...)); assay: peptide ELISA on BSA-conjugated peptides
T3 construct: also called long peptide
T3 peptide: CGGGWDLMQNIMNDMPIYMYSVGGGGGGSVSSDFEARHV
Protocol: as §4, §5

[4] = biological target: T4, EphA2pep_P2 (BSA-CGGGGGGSVSSDFEARHV); assay: peptide ELISA on BSA-conjugated peptides
T4 peptide: {BSA}-CGGGGGGSVSSDFEARHV
Protocol: as §4, §5

[5] = biological target: T1, recombinant EphA2 protein; assay: ELISA, serially diluted scFv on coated recombinant EphA2
Protocol: The recombinant EphA2 protein (0.5 ug/well) was coated onto the wells of the microtiter plate at 4° C. overnight. The wells were blocked with 5% skim milk, and scFv or phage was then added to the wells at room temperature for 1 h. After the wells were washed with PBST, the bound scFv or phage was then detected and developed using horseradish peroxidase (HRP)-conjugated goat anti-chicken light chain antibodies (Bethyl Laboratories) or HRP-conjugated anti-M13 antibodies (GE Healthcare Life Science). Finally, the substrate 3,5,5-tetramethubezidine dihydrochloride (TMB) was added for signal development. The reaction was stopped by adding 1 N HCl, and absorbance was measured by determining optical density (OD) at 450 nm.
Four representative scFvs were serially diluted to test the percentage of binding to EphA2 molecules. (FIG. 3C) After gene sequencing, we serially diluted the four isolated representative scFvs to test the binding reaction to EphA2.

Molecule: Nc1ccn([C@@H]2O[C@H](CO)[C@@H](O)C2(F)F)c(=O)n1 [Gemcitabine, reference compound]
TGI (tumor growth inhibition) (BxPc-3 tumor; 20 mg/kg, biw): 34.6%
TGI (tumor growth inhibition) (BxPc-3 tumor; 100 mg/kg, qwk): 59.8%
TGI (tumor growth inhibition) (Mia PaCa-2 tumor; 20 mg/kg gemcitabine): 38.7%
TGI (tumor growth inhibition) (Mia PaCa-2 tumor; 100 mg/kg): 73.7%

B1: ephrin-A1: ligand of EphA2, recombinant, used as a positive control (protein)
chain: DRHTVFWNSSNPKFRNEDYTIHVQLNDYVDIICPHYEDHSVADAAMEQYILYLVEHEEYQLCQPQSKDQVRWQCNRPSAKHGPEKLSEKFQRFTPFTLGKEFKEGHSYYYISKPIHQHEDRCLRLKVTVSGKITHSPQAHDNPQEKRLAADDPEVRVLHSIGHS
modifications: left off: a dimerising Fc or GST
notes: ligand of EphA2, recombinant, used as a positive control
endocytosis after targeting EphA2 (BxPc-3 cells): endocytosed from the cell membrane into the cytoplasm

Kd [1]: 2.06 nM
binding result [2]: binds
binding result [3]: binds
binding result [4]: binds
B2: Humanized IgG hSD5 (antibody, V domains shown)
VH: QVQLVESGGGLVQPGGSLRLSCAASGFTFSDYGMGWVRQAPGKGLEWVAGISAAGSFTPYGAAVKGRFTISRDNSKNTVYLQMNSLRAEDTAVYYCARIPSGYRAGEIYTWGQGTLVTVSS
VL: LTQPPSVSVSPGQTVRITCSGSSGSYGWYQQKSPGQAPVTLIYDNDKRPSGIPERFSGSSSGSTSTLTISGVQAEDEADYYCGSADSSTYVGMFGGGTKLTVL
notes: also called hSD5 IgG; hSD5 IgG1

EC50 [5]: 1.8 nM
B3: scFv SD5 (scFv)
scFv: LTQPSSVSANLGETVKIPCSGSSGSYGWYQQKSPGSAPVTLIYDNDKRPSDIPSRFFGSTSGSTSTLTITGVQAEDEAVYFCGSADSSTYVGMFGAGTTLTVLGQSSRSSTVTLDESGGGLQTPGGGLSLVCKASGFTFSDYGMGWVRQAPGKGLEFVAGISAAGSFTPYGAAVKGRATISRDNGQSTVRLQLNNLRSEDTGIYYCARIPSGYRAGEIYTWGQGTEVIVSS
notes: also called antibody SD5
